Measured values published in publication PMC3351150.

Biological target: controller protein C.Esp1396I
Experiment: crystal structure

stoichiometry N: 2
Substance: controller protein C.Esp1396I (natural protein)
